# Where a chain is given by its changes, count along the chain named.
# T1: PPRcag_6 (6D9G), Nluc-PPR-His6 (synthetic construct)
# T1 chain: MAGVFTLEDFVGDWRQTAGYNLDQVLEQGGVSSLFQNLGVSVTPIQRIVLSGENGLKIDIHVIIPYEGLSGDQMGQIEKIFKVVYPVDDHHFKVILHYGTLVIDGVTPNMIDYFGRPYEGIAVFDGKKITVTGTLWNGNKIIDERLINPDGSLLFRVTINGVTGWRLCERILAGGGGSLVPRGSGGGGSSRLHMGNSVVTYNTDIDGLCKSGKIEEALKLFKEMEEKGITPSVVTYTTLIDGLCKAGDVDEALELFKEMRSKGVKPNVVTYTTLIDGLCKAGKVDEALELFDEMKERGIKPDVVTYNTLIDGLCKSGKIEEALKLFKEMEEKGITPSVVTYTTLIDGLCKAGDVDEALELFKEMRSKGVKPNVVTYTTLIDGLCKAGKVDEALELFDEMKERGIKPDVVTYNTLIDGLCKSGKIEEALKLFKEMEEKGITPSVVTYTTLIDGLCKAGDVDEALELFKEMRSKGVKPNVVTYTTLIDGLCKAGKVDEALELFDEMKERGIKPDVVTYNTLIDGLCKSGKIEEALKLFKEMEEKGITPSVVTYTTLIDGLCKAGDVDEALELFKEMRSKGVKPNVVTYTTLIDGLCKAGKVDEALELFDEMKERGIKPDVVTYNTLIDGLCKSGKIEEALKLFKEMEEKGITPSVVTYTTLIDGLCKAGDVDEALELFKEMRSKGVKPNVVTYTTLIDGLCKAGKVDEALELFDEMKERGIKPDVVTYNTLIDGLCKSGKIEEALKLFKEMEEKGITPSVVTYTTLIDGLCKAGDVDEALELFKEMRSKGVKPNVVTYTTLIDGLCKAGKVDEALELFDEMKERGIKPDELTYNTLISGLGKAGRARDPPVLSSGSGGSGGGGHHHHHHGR
# T2: PPRcag_5 (6N9K), Nluc-PPR-His6 (synthetic construct)
# T2 chain: T1 chain with D204N, G207K
# T3: PPRcag_3 (6N9Q), Nluc-PPR-His6 (synthetic construct)
# T3 chain: T1 chain with D204N, G207Q
# T4: PPRcag_4 (6N9E), Nluc-PPR-His6 (synthetic construct)
# T4 chain: T1 chain with D204N, G207E
# B1: CAGx6 RNA probe (ssRNA)
# RNA: GACAUGCCAGCAGCAGCAGCAGCAGGACUG
# What was measured:
# Experiment in all cases: vs PPRcag_1; streptavidin plate luciferase assay, RT
# Details in all cases: tags: N-terminal luciferase (Nluc), C-terminal 6xHis; label: 5'-biotin
# [1] = molecular target: T1, PPRcag_6 (6D9G), Nluc-PPR-His6
# Experimental: (§1) The binding experiment for PPR protein and RNA was performed by an experimental method for binding of PPR protein and biotinylated RNA on a streptavidin plate.
# (§2) There were synthesized RNA probes of 30-base RNAs containing the target CAGx6 sequence, untargeted CGGx6, CUGx6, and CCGx6, and the Dlb ([…]) sequence (positions 8 to 25 of SEQ ID NO: 42) modified with biotin at the 5′-end (in that order, SEQ ID NOS: 38 to 42, respectively) (Grainer). To a streptavidin-coated plate (Thermo Fisher, Cat. No. 15502), the 5′-end biotinylated RNA probes were added, reaction was allowed at room temperature for 30 minutes, and the plate was washed with a probe washing buffer (20 mM Tris-HCl, pH 7.6, 150 mM NaCl, 5 mM MgCl₂, 0.5% NP-40, 1 mM DTT, 0.1% BSA). For background measurement, wells to which biotinylated RNA was not added, but the lysis buffer was added were also prepared. Then, a blocking buffer (20 mM Tris-HCl, pH 7.6, 150 mM NaCl, 5 mM MgCl₂, 0.5% NP-40, 1 mM […], 1% BSA) was added, and the plate surface was blocked at room temperature for 30 minutes. Then, 100 μL of the E. coli lysate containing luciferase-fused PPR protein having a luminescence of 1.5×10⁸ LU/μL was added, and the binding reaction was allowed at room temperature for 30 minutes. Then, the plate was washed 5 times with 200 μL of a washing buffer (20 mM Tris-HCl, pH 7.6, 150 mM NaCl, 5 mM MgCl₂, 0.5% NP-40, 1 mM DTT). To each well, 40 μL of luciferase substrate (Promega, E151A) diluted 2,500-fold with the washing buffer was added, reaction was allowed for 5 minutes, and then luminescence was measured with a plate reader (PerkinElmer, Cat. No. 5103-35).
# [2] = molecular target: T2, PPRcag_5 (6N9K), Nluc-PPR-His6
# Experimental: as §1, §2
# [3] = molecular target: T3, PPRcag_3 (6N9Q), Nluc-PPR-His6
# Experimental: as §1, §2
# [4] = molecular target: T4, PPRcag_4 (6N9E), Nluc-PPR-His6
# Experimental: as §1, §2
binder,measurement,setting,value
B1,binding signal,[1],~130%
same,binding signal,[2],~120%
same,binding signal,[3],~80%
same,binding signal,[4],~60%
